Laboratory results reported in the DeepSol protein solubility set.

Assay: soluble on expression in E. coli; label from the status in PepcDB or PDB records

Sequence | soluble on expression in E. coli
DTTERKRREKRLEETSSRLEALFENSPDMIDVLDADGTICEVNQRFCAELGYDESEVLGRSIWEFDLMFDAEDVQTQLSGFSVDERRKFEGLYERRDGSTMSVEVHLLRFNLEGEDRFLAISRD | soluble
DVLESTIKAQKSRALNRKNLNYKQLLNTFGSLIGLVFLKSYEQGERTYLGMLSRGYSKDSNIKTLGQK | not soluble
DVRGMSQSVGAVVRGFATADPHVRIAGVILNKVGTDRHAEVCREAVEAVGVRVLGAIPRVDHAEVPSRHLGLITSVELDAAEDAVAAMATMVEEHVDLNALIELADCAYNGPAWDPALAMGMSDAEALDN | not soluble
DVTGLATGFRDLDKITTGLHPDQLIILAARPAVGKTAFVLNIAQNVGTKMNRPVAIFSLEMGAESLVDRMLASEGMVDAHNLRTGQLTEQDWQNITLAQGTLADAPIYIDDTPGIKVTEIRARARKLDQELEKGLGLIVIDYLQLITGTRPENRQQEVSDISRQLKILAKELGVPVIALSQLSRGVEQRQDKRPVLSDI | not soluble
DWDSREKEAQRVAQRVTARTVSEIEYYHRESTQIAQALVENQARIEGIYKYFSLSMPDYFYWQLERKASPYISVSLYENVDDLYVRNDFVTGVAIAFQDYKEVYVSTKDKRSGEKIRAEDFKPAGNSFAIPVSDPVSDQDLGVIYISLDPAVLYHAIDNTRGHTPMAVTVTSPFDTEIFHMGETVDKESENWLVGLTSHGYQVQVAVPKN | not soluble
EACGYSDRVLQLTLGNSTITTQEAANSVVAYGRWPEYLRDSEANPVDQPTEPDVAACRFYTLDTVSWTKESRGWWWKLPDALRDMGLFGQNMYYHYLGRSGYTVHVQCNASKFHQGALGVFAVPEMCLAGDSNTTTMHTSYQNANPGEKGGTFTGTFTPDNNQTSPARRFCPVDYLLGNGTLLGNAFVFPHQIINLRTNNCATLVLPYVNSLSIDSMVKHNNWGIAILPLAPLNFASESSPEIPITLTIAPMCCEFNGLRNITLPRLQ | soluble
EDPGGITRTKGERVDATVDGLPDGVSPEDAAKFTSVLNKLIKDDPELKKSVEVKTLKAASKTKRTKEVVNWRGGGGFQVAHLSPACFDYDPALDRVMLTAAATGETLIESVAANLGFTLLHPDDDYVFDARRGNALLKVVEGVATPQIVDWLASQIQPGETIVLAATTVMDGVRQHLRKAVKGSRVVALPDDIFRYSEGGNK | not soluble
EEDWVLPSEVEVLESIYLDELQVIKGNGRTSPWEIYITLHPATAEDQDSQYVCFTLVLQVPAEYPHEVPQISIRNPRGLSDEQIHTILQVLGHVAKAGLGTAMLYELIEKGKEILTDNNIPHGQ | soluble
EERLKMSTTTSTQDSGLLKVLLPPFEKKNNVKVDVIAVGTGQALKLGEAGDVDVVFVHARKLEDKFVADGFGVNRKDVMYNDFVIVGPKNDPAGIAKAKTAAEALKLLATKGATFISRGDKSGTHTKELDLWKSAGVDPKGNWYVEAGQGMGPVITMATERRAYTLTDRGTYNAFKGAKTDLVILFQGEKGLFNPYGIMAVNPKKFPHVKYDLAMKLIDYVTGPEGLKIISDYKAHG | not soluble
EGIPWEGNYTSWLEQKDARLQQEASQESARQKTIEKELEWVRKNPKGRQAKSKARMARFEELQNTEHQKRNETNELFIPPGER | soluble
EHRSIMNTLNFLESHYPVTAEDAYLLKTNYVFDVSISELFGWFIGDGRLVILPPNGEKSPQLCMDYIETYKVTHINFVPAMLHVFLEMAKDNKRFTEDGPLKYMMVAGEAFPKVLVKKAVSLFTNCRVENIYGPTEASIYAAYFGCGKGDIASHHTPIGKP | not soluble
ELKDLQKDEKFWTESSQFKVSVPVGWDINHKEVCFEIGNEQNHTLICGRSGSGKSNFLHVLIQNLAFYYAPNEVQLFLLDYKEGVEFNAYTDPNILEHARLVSVASSVGYGMSFLNWLCKEMQERANLFKQFNVKDLSDYRKHGEIPRLIVVIDEFQVLFSDNKSTKAVEGHLNTLLKKGRSYGVHLILATQTMRGTDINRSIMAQIANRIALSMDAEDSNSILGDDAACELVRPEGIFNNNGGHQKHHTKMSIPKAP | not soluble
ELNKNFDAVVDTAIARWRRSGPVVAMTRPDLKHGRGGLRDFELIKALALGHLCNLPQLDAQHQLLLDARTLLHVHARRSRDVLDPEFAVDVAMDLGFVDRYHLGREIADAARAIDDGLTTALATARGILPRRTGFAFRNASRRPLDLDVVDANGTIELSKKPDLNDPALPLRVAAAAATTGLPVAESTWVRLNECPPLPEP | not soluble
EMVLLPAPQIPLIMKIMKNHTPTWLPGVPTLYEKIVAEATAKGVEIKGIRNSFSGASTLPVRTVEDWENLTGGLLVEGYGLTETSPVLCGNPMNGNRRPGYIGVPFPDTEIRIANPDNLDETMPDGEAGEVLARGPQIFQGYLNKPEATAATFHGDWFRTGDMGVMEEDGFIRLVSRIKEIIITGGFNVYPAEVEEALIAHPDVDDAAVVGRPRKDGSEDVVACIVLKDGAALDPEGLKTHCRKLLTRYKVPRTFYHFEALNKDQLGKVRRREVQQTLLERLGEK | not soluble
ENIEVHMLNKGAEGAMVFEPAYIKANPGDTVTFIPVDKGHNVESIKDMIPEGAEKFKSKINENYVLTVTQPGAYLVKCTIHYAMGMIALIAVGDSPANLDQIVSAKKPKIVQERLEKVIASAK | soluble
EPAQVRLLSSDFVLPGKHQRLAGWAREAGVELRGLRLGIGEAPPGEWLDGGNLLILDTPRPTDRAQVEEALGERLQGGTQPWIRVGGGPPGFGNLPAALGGRLVGYYANGGEANLRRLFEAVRRWHAGLTVDALPAPQPLAQAGFYHPDAPAPFAVLADYLAWGASRWASDAPRIAFLIPRGAIADAQTGAIDELLRRSERHGQAPLAVWFDDSDPEALRKSFAGADVQALVNLQHLQNGPARRAEFLALDVPVLQTLGYRDGNEADWLAAASGVAPRTAAAFLGMPETWGMSDPLVISALENGEPKLMAGQAEALLDKLDRLLRLRRLPAADKHLALMFWNHPEGEKNVAASHLNVPASLARLGEALRAAGYRVATSDESALIDTAQRLLGGYYRPQTLDALYRDGLAASLPLDAYLHWFEALPADLREEMRARWGDPRRHWALRDIDGQRRFVFPAARLGNLLLLPQPPRAGRPGEAYHDSAVPPDHLYLAVYQFVREGFGADALIHFGTHGTQEWLPGKDRGLAVGDYPLRALGDLPVFYPYIQDNVGEAIQARRRGRAVTVSHQTPSFAPAGLYDELRDLHQLIHEYQQLDEGAVRERSAEQIRAAVRAAHMNDDLGWSEAAMHEDFPAFLGVLHDHLHRLAGSAMPLGLHTFGVAASPELRLGTVMQQLGEPYYRALGLDPDELFAADFRALREGRAYRTLQRYLRDGGEIAKVADPRLREQLLRARELDRQLADTGELEALLAGLAGRFVAPGPGGDPIRNPQVPSGRNLFAFEADKVPTRAAYEAGAEAFGQLLESYRAEHQGRAPEKLAFSLWSSETMRHLGIVESQALHALGLRPRWDAGGRLLALDIVPAAELGRPRVDVVLQVTSVYRDQFDGFMRLLAEAIERLAALDEPGNPLARNSQALERRLRERGVEAPLAQRLSRLRLFGNAPGDYGTGVTQLTLDSTRWDDDSALAEQFLGRLQYAYGSRDWGVKLDGGNLFAEQLKGVQAAILSRSSTLNGVLSTDHPFEYLGGLSLAVRHLDGASPALYIADLRQRQPRTTAAAQFLASELRGRYLSPQWIAAMQREGYAGSLEMLDLANNLWGWQAADRIMVRADQWQALHDTFVMDRRELGLAEWFETHNPTAQAQIIARMAEAIRKGYWDASEQTRRELAERWRQLAAAGAGEVGAATTREFIERMAGGFGEAAAQAEGAAASGAGETVSGRVLEEVAPPPSGEPQ | not soluble
ERSPFPELLPFGEVSVRDSMLYLFVRPDMAGKEVFIPVNGEFLEEVSNLTNASPLNMDIRKTGVRIRMPASMPESFLVLALAFDRNDFVLAGRPQGYPLHMANSSRIYGHSCWDYYTGFKSITGMKWQAVSAPRAIIYTDMEAGKTLRLSVGREEREITLEGGKSEEVSISHDGLSWGKPYVRQVGGVFGMIPDNILRGDSIPLPLTKGWEEMPVGQVEKKPWGEISSCLLVQDIVSDREQTVACHLTFGNGIYVTLNGKQITAELIRETGLAHELTVCLPLQKGKNRLAVKFMNRFGEELIRGVSWPKSYTRYLLPIEGFSLEKVGKKGIPIELRPASVRYQGASASIPNIALL | not soluble
ESEILGLFQRWQAAHGQRSGKALEGVYAPRLDYYGRAQTRERTLSAKQAFFARHPDFEQRIVAAPQIVPGDQEGRYEVRFVKQVRLDGRLRNYPGLLLAERAGPGDTWRFVGESDEITRYAVDPRYTPLARGRFAGTEADFAWVVAHAPNSAALCDEYEDCRCDLWSADARVPPK | not soluble
ETIASELKAIGKELEDQKKEENIQIAKIAKEKFDFLSTFKVGPYDLIDEDIQMKIKRTLYSSLDYKKENIEKLKEILEILKKNSEHYNIIGRLIYHISWGIQFQIEQNLELIQNGVENLSQEESKSLLMQIKSNLEIKQRLKKTLNETLKVYNQNTQDNEKILAEHFNKYYKDFDTLKPAF | soluble
ETQQRCVTATDYDTFVSERFGSIIQAVQTFTDSTKPGYAFIAAKPKSGLYLTTVQREDIKNYLKDYNLAPITPSIISPNYLFIKTNLKVTYALNKLQESEQWLEGQIIDKIDRYYTEDVEIFNSSFAKSKMLTYVDDADHSVIGSSATIQMVREVQNFYKTPEAGIKYNNQIKDRSMESNTFSFNSGRKVVNPDTGLEEDVLYDVRIVSTDRDSKGIGKVIIGPFASGDVTENENIQPYTGNDFNKLANSDGRDKYYVIGEINYPADVIYWNIAKINLTSEKFEVQTIELYSDPTDDVIFTRDGSLIVFENDLRPQYLTIDLEPISQLEHHHHHH | soluble
EVLRVQDKYFHIKCFVCKACGCDLAEGGFFVRQGEYICTLDYQRLYGTRCFSCDQFIEGEVVSALGKTYHPDCFVCAVCRLPFPPGDRVTFNGKECMCQKCSLPVSVGSSAHLSQGLRSCGGCGTEIKNGQALVALDKHWHLGCFKCKSCGKLLNAEYISKDGLPYCEADYHAKFGIRCDSCEKYITGRVLEAGEKHYHPSCALCVRCGQMFAEGEEMYLQGSSIWHPACRQAARTEDRNKETRTSSESIISVPASSTSGSPSRVIYAKLGGEILDYRDLAALPKSKAIYDIDRPDMISYSPYISHSAGDRQSYGEGDQDDRSYKQCRTSSPSSTGSVSLGRYTPTSRSPQHYSRPGSESGRSTPSLSVLSDSKPPPSTYQQAPRHFHVPDTGVKDNIYRKPPIYRQHAARRSDGEDGSLDQDNRKKSSWLMLKGDADTRTNSPDLDTQSLSHSSGTDRDPLQRMAGDSFHSQYKIYPYDSLIVTNRIRVKLPKDVDRTRLERHLSPEEFQEVFGMSIEEFDRLALWKRNDLKKKALLF | soluble
EVPTIDGRAKIRIEAGTQPGKMLRLRNKGLPSVNGYGMGDQLVNVNVYIPESIDAKDEQAIAAMENSDSFKPTDAARKDIDKKYREMLD | not soluble
FDKTVLQIFANYCVAAAESMAHTLMRTAHSAFVKETEDFSCTIMTPRGQTFASPKTLGATWYPGLDFSGAIDMIDGYEPGDICMTNDAYSGYVATHTPDIMMWKPVYYQGEMVCFVGGHIHNTDMGGAVPASLSRTLTEVHQEGIRFPPTKIVRRGVLNEELMRLMELNVRSPDQNRGDLQAQTAMLMTGERRIVEIIERFGLQAFKEGMAAMLDYSEQQARAIVRAMPDGEYFFAEYANEDSLNGKPLRVAITLRIRGDELEFDFTGSDPQLTSSLNMPTGGKERHVLALVGLNYVLYSLNPEILLNAGMLRVARCILPEGSVVNPLAPAAVGMRSLTCKVVQYATMGVFSQVVPDRLPASPAGGMSIVNVKTTDRDGKTIIAAIEPVGGGAGGDPYSDGADASGAIVAFLRNTPVEINETEVPIRITRYGMVPDSGGPGRYRGGLGTCMEFQVYTPNSAVTARNRDRSRFASWGVLGGKAGTVSRFLRNPGTAHEEDLGVHDFIHCQPGDVIRLEGCGGGGYGSPWERDPARVLHDVRCGYV | not soluble
